# Measurements reported in publication PMC7763939.
# Tests used:
# [1] = biological target: PKSIII Mo29 Red (truncated/reduced type III polyketide synthase of Naganishia uzbekistanensis strain Mo29, without the 74 aa C-terminus extension) (Naganishia uzbekistanensis strain Mo29 (UBOCC-A-208024)); assay: SEC + other: dynamic light scattering; Sephacryl-200 gel filtration column, 50 mM Tris-HCl pH 7.5, 200 mM NaCl, size calculated with marker; DLS on a DynaPro-801; monomer to dimer
# [2] = biological target: PKSIII Mo29 Std (type III polyketide synthase of Naganishia uzbekistanensis strain Mo29, whole protein with the C-terminus extension) (Naganishia uzbekistanensis strain Mo29 (UBOCC-A-208024)); assay: as above
Substance,stoichiometry N [1],stoichiometry N [2]
"PKSIII Mo29 Red (truncated/reduced type III polyketide synthase of Naganishia uzbekistanensis strain Mo29, without the 74 aa C-terminus extension) (domain or fragment)",2,
"PKSIII Mo29 Std (type III polyketide synthase of Naganishia uzbekistanensis strain Mo29, whole protein with the C-terminus extension) (enzyme)",,2
